Laboratory results taken from publication PMC5415192, “Zebrafish GDNF and its co-receptor GFRα1 activate the human RET receptor and promote the survival of dopaminergic neurons in vitro” (PLoS ONE, 2017).

B1: Complex of His-tagged zebrafish GFRα1 (residues 31-351) and zebrafish GDNF (complex, zebrafish (Danio rerio))
chain 1: DCVKANELCLKEPGCSSKYRTMRQCVAGRESNFSMATGMEAKDECRLVLDALKQSPLYNCRCKRGMKKEKNCLRIYWGIYQHLQGNDLLEDSPYEPVNSRLSDIFRLAPIYSGEPALAKENNCLNAAKACNLNDTCKKYRSAYISPCTSRVSTAEVCNKRKCHKALRQFFDKVPPKHSYGMLYCSCPLGDQSACSERRRQTIVPACSYEDKERPNCLTLQVSCKTNYICRSRLADFFTNCQPEPLSLSGCLKENYADCLLSYSGLIGTVMTPNYLRSPKISVSPFCDCSSSGNSKEECDRFTEFFTDNACLRNAIQAFGNG
chain 2: SSDVEPQMKRDRVRQKAAANTEKSGGRGRGERKRSRGRARSRDDRVKGQGRGCLLKEIHLNVTDLDLGYRTKEELIFRYCSGPCHDAETNYDKILNNLTHNKKLDKDTPSRTCCRPIAFDDDISFLDDSLEYHTLKKHSAKKCACV
notes: GDNF family receptor alpha-1, Danio rerio, UniProt Q98TT9, residues 31-351, lacking the GPI-anchor; Glial cell line-derived neurotrophic factor, Danio rerio, UniProt Q98TU0, mature GDNF, residues 90-236; as m6; In the BLI experiment His-tagged zGFRα1 was held on the Ni-NTA tip, and zGDNF was supplied pre-mixed with zRET^ecd; The stoichiometry of the complex was not measured here; also called …
B2: Zebrafish (Danio rerio) mature GDNF (residues 90-236) (ligand, UniProt Q98TU0 90-235, looked up)
chain: B1 chain 2
notes: Glial cell line-derived neurotrophic factor, Danio rerio, UniProt Q98TU0, mature GDNF, residues 90-236; 'zGDNF' is the construct in the original pK503.9 vector (Flag-tag only); Whether its Flag tag was removed is not clear; It appears as a mixture of a DTT-sensitive dimer and monomer, and it is glycosylated; also called zGDNF; zebrafish GDNF; source: Hi5 insect cells, baculovirus, secreted; …
B3: Zebrafish (Danio rerio) RET extracellular domain (residues 22-626) (domain or fragment, UniProt A8E7C6 22-626, looked up)
chain: GLYFPQRLYTENIYVGQQQGSPLLQVISMREFPTERPYFFLCSHRDAFTSWFHIDEASGVLYLNKTLEWSDFSSLRSGSVRSPKDLTLKVGVSSTPPMKVMCTILPTVEVKLSFINDTAPSCGQVELSTLCFPEKISNPHITENREPGALRQLRRFTHMSICPNYTISYGVVAGSSVPFAVDDSTSELVVTAQVDREEKEVYHLDIVCMVRTERNLEEVFRSLHVNIYDEDDNSPYVNGTDTEDVLVEFDRSEGTVFGTLFVYDRDTTPVYPTNQVQNKLVGTLMTNDSWIKNNFAIEHKFREEKAIFGNVRGTVHEYKLKLSQNLSVTEQRSFLLGYLVNDTTFPGPEGTVLLHFNVTVLPVPIRFSNVTYSFTVSQKATTYSQIGKVCVENCQKFKGIDVTYQLEIVDRNITAEAQSCYWAVSLAQNPNDNTGVLYVNDTKVLRRPECQELEYVVIAQEQQNKLQAKTQLTVSFQGEADSLKTDEPRFPACAEKRQRGDCEATRGLGAPTGRCQWRQGRDKGISKRYSTCSPNLGTCPDGYCDAIESKNISICPQDCSSEAIIGGYERDLYGIKAGHGTCYCFEGKCFCERDEPEDDICNDMC
notes: RET, Danio rerio, UniProt A8E7C6, extracellular domain, residues 22-626; cloned from zRET-CS2-MT+; The protein is glycosylated; also called zRET^ecd; zRET; source: Hi5 insect cells, baculovirus, secreted

Tests used:
[1] = molecular target: B3; assay: BLI; BLItz; His-tagged zGFRα1 (58 μM, 4 μl) immobilised on Ni-NTA tips; pre-mixed zRET^ecd and zGDNF at 0.3-44 μM; 20 mM HEPES pH 8, 150 mM NaCl, 1 mM CaCl2; plateau values fitted as Scatchard plots; triplicate; details: both partners purified
[2] = molecular target: the molecule itself; assay: SDS-PAGE with and without DTT; purified zGDNF on a Coomassie-stained gel, with 1 mM DTT or without
[3] = molecular target: the molecule itself; assay: SEC + native gel or EMSA; affinity-purified zRET^ecd separated by SEC into two peaks; fractions and pools run on BN-PAGE and SDS-PAGE

Binder: B1
- Kd [1]: 5.9 ± 1.5 µM

Binder: B2
- stoichiometry N [2]: 2

Binder: B3
- stoichiometry N [3]: 2
